Results published in publication PMC3480987 (Molecular microbiology, 2012).
Where two headings read alike, the source gives them in different places.

Assays:
[1] = target: the molecule itself; assay: sucrose density gradient centrifugation + SEC
BLI [2] = target: the molecule itself; assay: BLI
BLI [3] = target: the molecule itself; assay: BLI; remark: listed apart in the source

Protein	stoichiometry N [1]	Kd (BLI [2])	Kd (BLI [3])
Thioredoxin-UgtP fusion protein (wild type) (enzyme, B. subtilis, UniProt P54166 1-382, looked up, biotin on the copy immobilised on the biosensor (site not stated)) MNTNKRVLILTANYGNGHVQVAKTLYEQCVRLGFQHVTVSNLYQESNPIVSEVTQYLYLKSFSIGKQFYRLFYYGVDKIYNKRKFNIYFKMGNKRLGELVDEHQPDIIINTFPMIVVPEYRRRTGRVIPTFNVMTDFCLHKIWVHENVDKYYVATDYVKEKLLEIGTHPSNVKITGIPIRPQFEESMPVGPIYKKYNLSPNKKVLLIMAGAHGVLKNVKELCENLVKDDQVQVVVVCGKNTALKESLSALEAENGDKLKVLGYVERIDELFRITDCMITKPGGITLTEATAIGVPVILYKPVPGQEKENANFFEDRGAAIVVNRHEEILESVTSLLADEDTLHRMKKNIKDLHLANSSEVILEDILKESEMMTAKQKAKVLS	~8.8 monomers	17 nM	69 nM
UgtP (F112A V117A E306A N309A) (enzyme, B. subtilis, UniProt P54166 1-382, looked up, biotin on the copy immobilised on the biosensor (site not stated)) MNTNKRVLILTANYGNGHVQVAKTLYEQCVRLGFQHVTVSNLYQESNPIVSEVTQYLYLKSFSIGKQFYRLFYYGVDKIYNKRKFNIYFKMGNKRLGELVDEHQPDIIINTAPMIVAPEYRRRTGRVIPTFNVMTDFCLHKIWVHENVDKYYVATDYVKEKLLEIGTHPSNVKITGIPIRPQFEESMPVGPIYKKYNLSPNKKVLLIMAGAHGVLKNVKELCENLVKDDQVQVVVVCGKNTALKESLSALEAENGDKLKVLGYVERIDELFRITDCMITKPGGITLTEATAIGVPVILYKPVPGQAKEAANFFEDRGAAIVVNRHEEILESVTSLLADEDTLHRMKKNIKDLHLANSSEVILEDILKESEMMTAKQKAKVLS	–	16 nM	21 nM
